Measured values: the DeepSol protein solubility set

Assay: soluble on expression in E. coli; label from the status in PepcDB or PDB records

Row | Sequence | soluble on expression in E. coli
1 | MSLLPGPLLIPSDSSTELTQTVLEGESISCFQVGGEKRLCLPQVLNSVLREFTLQQINTVCDELYIYCSRCTSDQLHILKVLGILPFNAPSCGLITLTDAQRLCNALLRPRTFPQNGSVLPAKSSLAQLKETGSAFEVEHECLGKCQGLFAPQFYVQPDAPCIQCLECCGMFAPQTFVMHSHRSPDKRTCHWGFESAKWHCYLHVNQKYLGTPEEKKLKIILEEMKEKFSMRSGKRNQSKTDAPSGMELQSWYPVIKQEGDHVSQTHSFLHPSYYLYMCDKVVAPNVSLTSAVSQSKELTKTEASKSISRQSEKAHSSGKLQKTVSYPDVSLEEQEKMDLKTSRELCSRLDASISNNSTSKRKSESATCNLVRDINKVGIGLVAAASSPLLVKDVICEDDKGKIMEEVMRTYLKQQEKLNLILQKKQQLQMEVKMLSSSKSMKELTEEQQNLQKELESLQNEHAQRMEEFYVEQKDLEKKLEQIMKQKCTCDSNLEKDKEAEYAGQLAELRQRLDHAEADRQELQDELRQEREARQKLEMMIKELKLQILKSSKTAKEEGHHHHHH | not soluble
2 | MAVPATIPLTITNNSGRAEQIHIYNLGTELSSGRQGWADASGAFHPWPAGGNPPTPAPDASIPGPAPGRSTTIQIPKFSGRIYFSYGRKMEFRLTTGGLVQPAVQNPTDPNRDILFNWSEYTLNDSGLWINSTQVDMFSAPYTVGVRRGDGTTLSTGKLRPGGYNGVFNALRGQSGGWANLIQTRSDGTVLRALSPLYGVETGALPASVMDDYINRVWNKYTGTDLIVTPFADRPDVRYTGRVSGGVLRFTDGSGAVVTTFQKPDASSVFGCHRLLDAPNDQVRGPISRTLCAGFNRTTLLANPHQPDRSAAGFYQEPVTNHYARIIHAHMADGKAYGFAFDDVGHHESLVHDGDPRGASLTLDPFD | soluble
3 | MSLKIHTLRLILGDQLNARHSWFREKDAGVLYVMMELKQETDYVVHHRQKVLAFFAAMRAFGNALNTSGHQVNYIKLDDDTNEQSLTQNLQQLMKKYEVTTLECQQPDEYRLDHQLKSWAGANNIHLSWFDTEHFLTGRNSLKEYFPNSENYLMETFYRRVRKQYDILMDGGRPTGGRWNYDKENQKKVPASHDVELPLIFSNDVSDIDELLRSSEIKTMGQANAAQLIWEGHHHHHH | not soluble
4 | MRGSMGAMHVLTLDLAPVTPKDAPLLHRVFHLSPSYFALIGMELPTLEDVVRDLQTLEVDPRRRAFLLFLGQEPVGYLDAKLGYPEAEDATLSLLLIREDHQGRGLGRQALERFAAGLDGVRRLYAVVYGHNPKAKAFFQAQGFRYVKDGGPTLTWYVRPL | soluble
5 | MSLAQNMTIKDDFIHAFSSNANEPDWFLDIRRNAFKAYGELDLPFVDKTKITRWNFTKFETFIPFKEGVTNETLPEKVANLVDLDNKEANFYVQMDERPARLQLQQELVDQGVIFTDIISAVKNHPELVKKYFMKDAVQVNEHKLTAFHAALVNGGIFLYVPKNVEVKSPIQAVFVQDKAESPLVNHVLLVADDNSAVTYVENYVTVNNEPKGIVSIVEEVIAEKNARITFGGVDNLASEVTAYVNRRGHIGTDSQIEWALGLMNDGDTINENVTNLMGDGSSADVKTVTVGRGKQTQNVTTRVTHYGKASNGTILSHGVMKERATTIFNGIGHIKHGASKSDAQQESRVLMLSPEARGDANPILLIDENDVVAGHAASVGRVDPLQLFYLMSRGISQKEAERLVIHGFLDPVVRQLPIESVKTMLREVIEGKVREGHHHHHH | soluble
6 | MGHHHHHHSHMSHTQQQTASSTETSTVTVPPSREQNLVLHLSPNPAQPSTSERRHVVWATETVDNEGMGKKKSKCCCIYKKPKNWQDSSSDSDSDCETGHCRGHVEHKKNEEPKSSN | soluble
7 | MGSDKIHHHHHHMGGCCSQEGCNTRPRYLPLKCYPGLPMRATRRLDLSAVERALREVQGRFAELSQHFTEPRDPFTDEVLLNVVEGYALIDDYVARGIDLFDLQQLNLMLEINATVLCGSDPARRLEFAPHLAATEAHFFNNVEGGIKDLYNWYCAYRSDSIWKRAAGVYVRILSKPQLFIEGNNRTGSLIVSYLLMRAGLPPFVLSLDNAEGYFNPSSVIRNSAKHGVKALYELPKIKKKYAAFLEAKAPEPGKFFLNGTPVPACEGSR | not soluble
8 | METTGDKAFYFLLKNCGHSLKFVDLRNSKRLHGRSFKLFGSQLESLYLDGSSKVDEMAFEDLCTSCGGLKELRINECYKITDENLSMIARRMEDLSILTLCGDGFKSLTSAGLIHISHMRNITELALDYNALVNDELLISISAGLPLLSSLSLANAGNDSSITAEGVSAIKNLKELTQLDASSLAAVNSKVLEQLGSLKKLEIIQLRNCTYLGDDGVRAKLRMPNIRHVDLSGSILVSNDSIQQFIKAFPSGPKLPPITLVVGGTAADASKLSVRGSRVVVDFSDYSTIVTMQTSQCSSSKFAIGGSASDAEGSDDEFEALTAQRSFYIDAVCGEEESPITDDGKLAEWAEKEARSLGLIKD | not soluble
9 | STSPLSDLLNLDLSDTKKIIAEYIWIGGSGMDIRSKARTLPGPVSNPTKLPKWNYDGSSTDQAAGDDSEVILYPQAIFKDPFRKGNNILVMCDAYRPAGDPIPTNNRHKAVKIFDHPNVKAEEPWFGIEQGYTLLKKDVKWPLGWPLGGFPGPQGPYYCAVGADKAFGRDIVDAHYKACLYSGLSIGGANGEVMPGQWEFQISPTVGIGAGGQLWVARYILERITEICGVIVSFDPKPIQGDWNGAAAHTNFSTKSMRKDGGLDLIKEAIKKLEVKHKQHIAAYGEGNERRLTGKHETADINTFSWGVADRGASVRVGRDTEKEGKGYFEDRRPSSNMDPYLVTSMIAETTIL | soluble
10 | MAQQETPQDKRRRHARVDNVIYANFGAKTTVRTEPEAPEIVESRNFSPVALRIRDLATQEADAGRLKRGRDYARSGHVLNVKFGNSLITADVAGSQNLPFQVSIAFPYLSTDGLSQITQYIAASPDGLNAARHGQLSEDILDLLLGTQVTFRCDCPDHVVCCKHSVAVVTVASEKVEADPLLAFRLRGLDLAQLEQAVTMQARAASTQDLKERFWQGRDLPSLPEPKIAPALDDSDASLLHKAMRLVSYTNIDELRAVSDIEDIYYHLTHEKG | not soluble
11 | MKHEWRKFEKELYGVKAKPIFLEVEEQRFITIKGKGNPNDQDFSNRVSALYALAYGIKMAYKQAMKTEQDDRAVTDFAVYPLEGLWQQAKDAKEDTLEKDKLSYTIMIRQPEFITKELVDQALDRVKIKKPNSFYESISFESIKDGKCIQVLHIGSYDDEPQSFAKMDAFAKEHGLKRSSDIHREIYLSNAQRTEKSKLKTILRYQVEEK | not soluble
12 | MSDAMPLDQTLEQLTQDEWIDIPQGWSQGRTIYGGLVAGLLMHKALSVMNDESKNLLSTSITFVGPVNEGRVRLTVEILRQGKSVTTIEARLWQDQAVQTILIASFGQPRSLEHHHHHH | not soluble
13 | MKLANTKGERKLEQKLYYTDAYKQDFTTKVIKQDYDKDGNLYVILNETVFYPTGGGQPHDTGTLNGIAVLGVEEVDEEIRHFIAEQLHTEEVEGKINWERRFDHMQQHAAQHILSAAFWDYFNIPTIGFHLGKETVTIDLETENLHAETVEKAVQIANKIVFENHPILIKWMNLEEAKTLPLRKEPTMTENIRVVMIENFDYNGCGGTHPKRTGEVGPIQVLGWERNKGGIRLTFIAGWRTLKLMGQQQQIMKDVSKQLNSSEADIPAKVAQLLTSQKENKKAMQTMTEKLLYTEANELLQQPTKIHAGILISKVFTNRSMQEIAKLSAIITEQQEHAITYFVIENEDKLQCILACGKTVTLDMNALLKEALPTIEGKGGGNKKSARGGGKAMMSGDEFLNQLISSLQSAV | not soluble
14 | MMQVLTRPPSGMPALVLNADFRPLSYYPLSLWPWQEVIKAVFLDRVDVVASYDQVIHSPSCEMRLPSVVALKQYVPQERPPAFTRFNLFLRDSFSCQYCGSPEDLTFDHVIPRSRGGRTTWENIVTACAPCNLSKGGRTPREAGMQPFHTARRPSMYELQERGRRFPPGRLHVSWLDYLYWDIELEALEHHHHHH | not soluble
15 | MASGTASMQRPSIEKEPYYHGFLPREDVKTVLKNNGDFVIRISEPQAGSPRSNILSVMHCVPPMEEEIKHYVIKTKGDKIFIEKVSFLSIPEMVEWHLTKKESVQKDVFLIKAISRQAWELDHDNIEPLKKLGEGAFGEVMMGTMKFRKGGKSVQVAIKQAKLSNLTKEQIKEFMGEARVMRSLSHPHVVRFYGVPRRRVNVALCRSLNEFLAKCHRKLRCATPFFVCMSVNWLSVLNELRVFLE | not soluble
16 | MDSNSTTSFLSNGYNHKETLKLIEDMKNSASNKGILLYVNSPGGGVYESDELYLKLKEYKEETGRPVWTYMSNQACSGGYYISMASDKVFSNRNAWTGSIGVIISLTNLKGLYDNLGIKGIYITSGRNKAMGAADLELTDEQRDILQSLVDEAYEQFVEIVAEGRKMTVEEVKRIADGRILSAKQALELNLIDEIATYDEVKEAFQRRAWKC | not soluble
17 | MKKFSSLFRSFMHFQLTLVKPLTRRSRPIELGRLNCTEPVSSNFGFERGRPIDRYYINIFLSQNTNDVRGRVLEISDNGYTKRLGGKKVKQSDVLHAVEGNPKATIVSDITKADNIPSDSFDCIILTQTLQFIYDTKSAVRHLHRILKPNGVLLATMSGISQISRYDMDHWGEYWRFTTASAKQLFEEEFLPENIEVKAYGNVLSSTAFLYGLAVEDLKTEQLDYHDPNYQMLVTVRAVKADKQLEHHHHHH | not soluble
18 | TWVVSPAEKAKYDEIFLKTDKDMDGFVSGLEVREIFLKTGLPSTLLAHIWSLCDTKDCGKLSKDQFALAFHLISQKLIKGIDPPHVLTPEMIPPS | soluble
19 | GPGSMRNYNNFNRVWKAPRRPFEKERLDREMKLCGQYGLRCKREIWRVNMTLSKMRRTARLLLTLPENHPRRLLEGSAIMRRCHEYGFLDEEKDKLDYVLSLTVPDILERRLQTIVFKAGLAKSVHHARVLIQQRHIAVAKQIVTIPSFIVRVSSERHIAFADASPFGNGRAGRVKRVRAKAAKRHAGGGDDDE | not soluble
20 | MGSDKIHHHHHHMSVRQPLPERLRPTVLEGFVGQTHLTQRIEALLRANRLPSLLLFGPPGCGKSTLALLLAKARSANVLRLSAPEAGLQHLRKQLHGVDILVLDELHRFSKAQQDFFLPLLESGDITMLATTTENPSFSVTRQLLSRLHVLRLRPLGRAELLELGRRGAVAQEVQIEDDVLDLLASMSHGDARTMLNLLEYVAALPEDKRDIEGVRSAMPEIVSRHDKDGDNHYELASALIKSIRGSDPDAALYYLACLLEGGEDPRFVCRRLILSASEDVGLADPQALPLAVACMQAVEYVGMPEGFIPMAQTTVHLALARKSNSTYAAYINAARELKTQGRKGVPLHLRNPSTRLQKEWGYGKGYRYPHSYPEGWIEQEYLPEGLEDRRFYAPRENGEEPRLSAWWRKLQRQRPPRRGSGE | not soluble
21 | MFVVPRRLSSFLSLVHEYRHLARRSYVMETPSIDIQNIRAKYLNSHDPYLLESKLPTTSPFELFDIWFRNVASQSDLTFEEINAVSLSTVGKDLRPSSRMVLLKAYTPTGFSFYTNYTSRKGNQLEENPNAAMLFYWPKVNRQIRVEGVVEKLPDEMAVAYWNSRPVASRIGSKSSDQSKVVPDREFLESKKVALTELSVREGAQAITKPESWGGYHLIPRYFEFWQGQSDRLHDRIVFERDVDVWLLKRLSP | not soluble
22 | MGSDKIHHHHHHMSFKKVDLSRYQFDGAQASSIGDLTQLDAADKQRLLYAGIDVNQQNLAGSFMHMNHSGVHCTSRQEGLEILDIKQALDTYHGLPDYFWKLVDRNKDEYTRAADEHLHGGYFIRARAGAKIEAPVQSCLFIKGNGVGQNVHNVVVVEEGAEMHIITGCATAHDTRSVAHLGISEFYVHKGGKLTFTMIHNWGEEAAVRPRSAGYLEEDAVFLSNYVLLKPVTDLQMYPTITLGGRGSVARFNSVIVAPTGSYVDTGNRILLEAPDTRGEIIARTMTTGGTIINRGHIAGHAVPARGHLECKGLILGGGVIHAIPELEGTQDGVELSHEAAVGKIAQEEIEYLMARGLDEDEATSTIVRGFLNVDIMGLPEELEKAVEEQINQLDAGDAM | not soluble
